Series [1] concerns the molecule itself. The experiment in a line: SEC-MALS.
Series [2] concerns the molecule itself. The experiment in a line: SEC-MALS. This is another data set of the same source.

Where a chain is given by its changes, count along the chain named. In names and notes the source's numbering stands. Like-named read-outs stand apart in the source and are kept apart here.

B1: WT clathrin hub (bovine clathrin heavy chain aa1074-1675) (domain or fragment, UniProt P49951 1074-1675, looked up)
chain: KFDVNTSAVQVLIEHIGNLDRAYEFAERCNEPAVWSQLAKAQLQKGMVKEAIDSYIKADDPSSYMEVVQAANTSGNWEELVKYLQMARKKARESYVETELIFALAKTNRLAELEEFINGPNNAHIQQVGDRCYDEKMYDAAKLLYNNVSNFGRLASTLVHLGEYQAAVDGARKANSTRTWKEVCFACVDGKEFRLAQMCGLHIVVHADELEELINYYQDRGYFEELITMLEAALGLERAHMGMFTELAILYSKFKPQKMREHLELFWSRVNIPKVLRAAEQAHLWAELVFLYDKYEEYDNAIITMMNHPTDAWKEGQFKDIITKVANVELYYRAIQFYLEFKPLLLNDLLMVLSPRLDHTRAVNYFSKVKQLPLVKPYLRSVQNHNNKSVNESLNNLFITEEDYQALRTSIDAYDNFDNISLAQRLEKHELIEFRRIAAYLFKGNNRWKQSVELCKKDSLYKDAMQYASESKDTELAEELLQWFLQEEKRECFGACLFTCYDLLRPDVVLETAWRHNIMDFAMPYFIQVMKEYLTKVDKLDASESLRKEEEQATETQPIVYGQPQLMLTAGPSVAVPPQAPFGYGYTAPAYGQPQPGFGYSM
With B1, in “SEC-MALS [1]”, the “stoichiometry N” value stood at 3.

B2: C1573A clathrin hub (bovine clathrin heavy chain aa1074-1675, C1573A) (domain or fragment, UniProt P49951 1074-1675, looked up)
chain: B1 chain with C500A
For B2, the results for the “stoichiometry N” value in “SEC-MALS [2]” and in the series “SEC-MALS [1]” were ~3 and ~2, respectively.

Values taken from paper PMC3543496 (FEBS letters, 2012).
